{"source": "FireProtDB (doi:10.1042/bj2870481)", "proteins": {"B1": {"name": "Guanyl-specific ribonuclease T1 wild type, P00651 (protein)", "chain": "MMYSKLLTLTTLLLPTALALPSLVERACDYTCGSNCYSSSDVSTAQAAGYQLHEDGETVGSNSYPHKYNNYEGFDFSVSSPYYEWPILSSGDVYSGGSPGADRVVFNENNQLAGVITHTGASGNNFVECT"}}, "conditions": "Aspergillus oryzae (strain ATCC 42149 / RIB 40), 25 °C, GdnHCl, Absorbance, Unknown, KCl 0.1 M, reversible: yes, whole UniProt chain shown"}
{"protein": "B1", "values": [{"measurement": "denaturant m value", "setting": "pH 1.3", "result": 2.03, "unit": "kcal/mol/M"}, {"measurement": "denaturant midpoint (higher = more stable)", "setting": "pH 1.3", "result": 0.93, "unit": "M"}, {"measurement": "unfolding free energy", "setting": "pH 1.3", "result": 1.9, "unit": "kcal/mol"}, {"measurement": "denaturant m value", "setting": "pH 3", "result": 2.91, "unit": "kcal/mol/M"}, {"measurement": "denaturant midpoint (higher = more stable)", "setting": "pH 3", "result": 1.94, "unit": "M"}, {"measurement": "unfolding free energy", "setting": "pH 3", "result": 5.66, "unit": "kcal/mol"}, {"measurement": "denaturant m value", "setting": "pH 7", "result": 2.93, "unit": "kcal/mol/M"}, {"measurement": "denaturant midpoint (higher = more stable)", "setting": "pH 7", "result": 2.97, "unit": "M"}, {"measurement": "unfolding free energy", "setting": "pH 7", "result": 8.74, "unit": "kcal/mol"}]}
